In patent US20200255516A1 (JIANGSU HENGRUI MEDICINE, published 2020):

T1: human TIGIT (Sinobiological Co., Ltd., Cat. 10917-H08-H) (human, UniProt Q495A1 22-141)
T1 construct: also called huTIGIT; TIGIT-His
T1 sequence (looked up): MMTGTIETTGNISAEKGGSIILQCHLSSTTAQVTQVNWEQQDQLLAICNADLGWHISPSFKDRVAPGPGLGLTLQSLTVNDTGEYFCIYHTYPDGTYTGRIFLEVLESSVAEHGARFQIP

T2: Full-length human TIGIT on CHO cells overexpressing TIGIT (human, UniProt Q495A1 22-244)
T2 construct: also called TIGIT-CHO cells; CHO cells overexpressing human TIGIT
T2 sequence: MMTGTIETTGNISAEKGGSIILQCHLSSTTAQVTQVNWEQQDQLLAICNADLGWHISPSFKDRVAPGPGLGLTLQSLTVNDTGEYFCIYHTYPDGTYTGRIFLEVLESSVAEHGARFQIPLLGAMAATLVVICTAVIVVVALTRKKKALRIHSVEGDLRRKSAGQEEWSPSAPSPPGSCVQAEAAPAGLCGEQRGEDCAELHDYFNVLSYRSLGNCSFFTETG

T3: TIGIT fusion protein with Fc or mFc tag (human, UniProt Q495A1 22-141)
T3 construct: extracellular domain; also called TIGIT-Fc; TIGIT-mFc
T3 sequence (looked up): T1 sequence (looked up)

T4: human TIGIT on SEB-activated human PBMC (human, UniProt Q495A1)
T4 construct: native, on the cell surface
T4 sequence (receptor chain, looked up): T2 sequence

B1: h1710-01 (antibody, human IgG4 S228P, kappa, V domains shown)
VH: EVQLVQSGAEVKKPGASVKVSCKASGYTFTNYYMHWVRQAPGQGLEWMGRIDPTSGATKYNDNFKGRVTMTRDTSTSTVYMELSSLRSEDTAVYYCAREGGFGYYFDYWGQGTTVTVSS
VL: DIQMTQSPSSLSASVGDRVTITCRTSENIFTYLAWYQQKPGKAPKLLIYNAKTFAEGVPSRFSGSGSGTDFTLTISSLQPEDFATYYCQHHYGIPLPFGQGTKLEIKR
notes: also called humanized TIGIT antibody h1710-01
B2: h1711-04 (antibody, human IgG4 S228P, kappa, V domains shown)
VH: EVQLVQSGAEVKKPGSSVKVSCKASGYTFSNYWIGWVRQAPGQGLEWIGDIYPGGAYTNYNEKFKDRVTITADKSTSTAYMEFSSLRSEDTAVYYCTRGDYYDSSGRAMDYWGQGTLVTVSS
VL: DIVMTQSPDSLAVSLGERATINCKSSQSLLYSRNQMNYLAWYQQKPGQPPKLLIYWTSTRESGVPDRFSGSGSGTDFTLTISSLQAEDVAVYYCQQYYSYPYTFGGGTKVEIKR
notes: also called humanized TIGIT antibody h1711-04
B3: h1709-10 (antibody, human IgG4 S228P, kappa, V domains shown)
VH: EVQLVQSGAEVKKPGASVKVSCKASGYTFTDYYMHWVRQAPGQGLEWMGLVYPYNDNTGYNRKFKGRVTMTVDTSTSTVYMELNSLRSEDTAVYYCARGGPSNWNYFDYWGQGTLVTVSS
VL: DIQMTQSPSSLSASVGDRVTITCKASQNVVTAVAWYQQKPGKSPKLLIYSASNRYTGVPDRFSGSGSGTDFTLTISSLQPEDFATYFCQQYTLYPLTFGGGTKVEIKR
notes: also called humanized TIGIT antibody h1709-10

Key:
[1] = target: T5, cynoTIGIT-mFc (fusion protein of cynoTIGIT extracellular domain and mouse IgG2a Fc fragment) (cynomolgus); experiment: SPR (Biacore T200), antibody held by Fc affinity capture, cynoTIGIT-mFc in mobile phase, 1:1 Langmuir fit
T5 construct: also called monkey TIGIT; cynomolgus TIGIT-mFc fusion protein

[2] = target: T1, human TIGIT (Sinobiological Co., Ltd., …); experiment: SPR (Biacore T200), antibody captured via Protein A, huTIGIT in mobile phase, 1:1 Langmuir fit
[3] = target: T2, Full-length human TIGIT on CHO cells …; experiment: cell ELISA on fixed CHO cells overexpressing human TIGIT
[4] = target: T2, Full-length human TIGIT on CHO cells …; experiment: FACS blocking assay on TIGIT-CHO cells; competitor CF633-labeled CD155-Fc at 2 ug/ml
[5] = target: T5, cynoTIGIT-mFc (fusion protein of …); experiment: ELISA: cynomolgus TIGIT-Fc or TIGIT-mFc captured by coated anti-Fc antibody, HRP secondary antibody, OD450
[6] = target: T3, TIGIT fusion protein with Fc or mFc tag; experiment: FACS blocking assay: TIGIT-mFc pre-incubated with the antibody, added to CHO cells overexpressing CD112 (blocked ligand), PE anti-mouse IgG, MFI
[7] = target: T3, TIGIT fusion protein with Fc or mFc tag; experiment: ELISA: human TIGIT-Fc or TIGIT-mFc captured by coated anti-Fc antibody, HRP secondary antibody, OD450
[8] = target: T3, TIGIT fusion protein with Fc or mFc tag; experiment: blocking cell ELISA: TIGIT-hFc or TIGIT-mFc (0.2 ug/ml) pre-mixed with the antibody, added to fixed CHO cells overexpressing CD155 (blocked ligand), OD450
[9] = target: T4, human TIGIT on SEB-activated human PBMC; experiment: flow cytometry on SEB-activated human PBMC, PE anti-human IgG, MFI
[10] = target: T3, TIGIT fusion protein with Fc or mFc tag; experiment: HTRF blocking assay: TIGIT-Fc or TIGIT-mFc with biotinylated CD155 as the blocked ligand, ratio 665/620
[11] = target: T1, human TIGIT (Sinobiological Co., Ltd., …); experiment: SPR (Biacore), captured antibody, TIGIT-His as analyte

T5 sequence (chain, as listed by the source limits assumed): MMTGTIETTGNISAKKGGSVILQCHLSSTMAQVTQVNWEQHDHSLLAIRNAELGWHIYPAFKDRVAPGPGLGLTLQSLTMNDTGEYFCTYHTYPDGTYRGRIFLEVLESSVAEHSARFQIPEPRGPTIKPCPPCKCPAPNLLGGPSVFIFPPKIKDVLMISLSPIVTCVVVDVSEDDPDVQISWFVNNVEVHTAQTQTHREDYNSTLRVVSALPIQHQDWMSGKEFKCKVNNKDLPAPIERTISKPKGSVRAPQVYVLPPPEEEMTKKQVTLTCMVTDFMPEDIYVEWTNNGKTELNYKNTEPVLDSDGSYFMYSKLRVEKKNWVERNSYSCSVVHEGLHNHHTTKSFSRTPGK

Binder	Kd [1] [nM]	koff [1] [s⁻¹]	kon [1] [M⁻¹ s⁻¹]	Kd [2] [nM]	koff [2] [s⁻¹]	kon [2] [M⁻¹ s⁻¹]	EC50 [3] [nM]	IC50 [4] [nM]	EC50 (read off the curve) [5] [nM]	IC50 (read off the curve) [6] [nM]	EC50 (read off the curve) [7] [nM]	IC50 (read off the curve) [8] [nM]	EC50 (read off the curve) [9] [nM]	IC50 (read off the curve) [10] [nM]	Kd [11] [nM]	koff [11] [s⁻¹]	kon [11] [M⁻¹ s⁻¹]
B1	0.322	0.000371	1.15e+06	0.147	0.00024	1.63e+06	0.0769	0.468	~0.1	~5	~0.1	~1	~0.3	~2	–	–	–
B2	0.129	0.000317	2.46e+06	0.238	0.000436	1.83e+06	0.0587	0.57	~0.1	~5	~0.1	~1	~0.3	~3	0.21	0.000442	2.1e+06
B3	0.3	0.000415	1.39e+06	0.104	0.000259	2.49e+06	0.0568	0.427	~0.1	~5	~0.1	~1	~0.3	~3	–	–	–
